Measurements taken from article PMC10388152 (PNAS Nexus, 2023).

Molecular target: the molecule itself
Experiment: dynamic light scattering

B1: C-terminal truncated ScBfr (ScBfr 1-152: residues 153-167 removed) (domain or fragment, Streptomyces coelicolor, UniProt Q9S2N0 1-152, looked up)
chain: MQGDPEVIEFLNEQLTAELTAINQYFLHAKLQDHKGWTKLAKYTRAESFDEMRHAEVLTDRILLLDGLPNYQRLFHVRVGQSVTEMFQADREVELEAIDRLRRGIEVMRAKHDITSANVFEAILADEEHHIDYLETQLDLIEKLGESLYLST
stoichiometry N: 24
